Assay results: patent US20220204580A1 (AstraZeneca / MedImmune, published 2022)
Numbered stars: 1 amine (or outer) side, 2 acyl side, 3 side chain; on linkers, the order of the positions; unused ones are H or OH. Bridge positions count the residues as written; N and C are the ends. Square brackets hold non-standard residues; d marks the D form. Side chains are listed from the residue outwards. Ends that are not written are not given here. * marks the point of attachment. C18 diacid = O=C(O)CCCCCCCCCCCCCCCCC(=O)*; γGlu = O=C(O)[C@H](CCC(=O)[*:2])N[*:1]; Aib = CC(C)(N)C(=O)O

T1: human amylin receptor (calcitonin receptor co-expressed with receptor activity modifying protein, RAMP3) (human, UniProt P30988 25-474; O60896 24-148)
T1 sequence (looked up) 1: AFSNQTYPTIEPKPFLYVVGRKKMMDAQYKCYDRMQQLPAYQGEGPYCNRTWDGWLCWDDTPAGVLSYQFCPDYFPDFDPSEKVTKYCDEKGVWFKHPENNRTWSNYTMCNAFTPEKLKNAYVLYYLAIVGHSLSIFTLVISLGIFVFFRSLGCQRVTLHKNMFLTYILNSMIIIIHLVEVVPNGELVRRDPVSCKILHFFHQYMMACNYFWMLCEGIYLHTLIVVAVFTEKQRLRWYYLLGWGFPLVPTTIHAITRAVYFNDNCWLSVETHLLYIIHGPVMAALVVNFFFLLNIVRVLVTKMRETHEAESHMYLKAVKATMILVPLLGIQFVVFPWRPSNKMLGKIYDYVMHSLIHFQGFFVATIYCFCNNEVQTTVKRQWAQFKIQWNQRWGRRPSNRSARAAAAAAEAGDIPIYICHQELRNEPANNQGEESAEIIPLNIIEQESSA
T1 sequence (looked up) 2: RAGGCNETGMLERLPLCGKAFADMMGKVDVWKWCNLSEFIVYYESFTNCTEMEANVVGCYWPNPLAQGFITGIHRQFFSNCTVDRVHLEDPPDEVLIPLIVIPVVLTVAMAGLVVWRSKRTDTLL

T2: human calcitonin receptor (human, UniProt P30988 25-474)
T2 sequence (looked up): T1 sequence (looked up) 1

T3: rat amylin receptor (calcitonin receptor co-expressed with receptor activity modifying protein, RAMP3) (rat, UniProt P32214 25-516; Q9JJ73 23-147)
T3 sequence (looked up) 1: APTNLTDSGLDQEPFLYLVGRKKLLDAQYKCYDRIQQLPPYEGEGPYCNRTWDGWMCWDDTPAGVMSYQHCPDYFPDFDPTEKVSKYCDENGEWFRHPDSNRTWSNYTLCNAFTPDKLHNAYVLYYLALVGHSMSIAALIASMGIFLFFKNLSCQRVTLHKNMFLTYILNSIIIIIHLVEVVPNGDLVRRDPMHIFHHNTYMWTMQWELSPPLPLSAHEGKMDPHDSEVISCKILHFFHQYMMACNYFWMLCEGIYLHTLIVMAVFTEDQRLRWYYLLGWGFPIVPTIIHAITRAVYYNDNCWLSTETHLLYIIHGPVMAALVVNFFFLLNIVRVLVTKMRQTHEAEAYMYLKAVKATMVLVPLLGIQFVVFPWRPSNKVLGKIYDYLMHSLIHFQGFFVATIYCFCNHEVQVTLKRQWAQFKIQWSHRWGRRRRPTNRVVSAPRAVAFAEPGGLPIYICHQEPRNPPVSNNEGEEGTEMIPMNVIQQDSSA
T3 sequence (looked up) 2: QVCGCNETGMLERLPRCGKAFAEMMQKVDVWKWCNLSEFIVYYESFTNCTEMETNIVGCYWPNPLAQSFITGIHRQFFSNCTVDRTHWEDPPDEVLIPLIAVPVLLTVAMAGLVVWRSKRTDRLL

T4: rat calcitonin receptor (rat, UniProt P32214 25-516)
T4 sequence (looked up): T3 sequence (looked up) 1

B1: Peptide 43 (SEQ ID NO: 43) (peptide)
peptide: K([γGlu-C18 diacid])KCNTATCATQRLANFLRHSS[Aib]NFGPILPPTEVGSNTY-NH2
modifications: disulfide 3-8; N-terminus assumed
SMILES: CC[C@H](C)[C@H](NC(=O)[C@@H]1CCCN1C(=O)CNC(=O)[C@H](Cc1ccccc1)NC(=O)[C@H](CC(N)=O)NC(=O)C(C)(C)NC(=O)[C@H](CO)NC(=O)[C@H](CO)NC(=O)[C@H](Cc1c[nH]cn1)NC(=O)[C@H](CCCNC(=N)N)NC(=O)[C@H](CC(C)C)NC(=O)[C@H](Cc1ccccc1)NC(=O)[C@H](CC(N)=O)NC(=O)[C@H](C)NC(=O)[C@H](CC(C)C)NC(=O)[C@H](CCCNC(=N)N)NC(=O)[C@H](CCC(N)=O)NC(=O)[C@@H](NC(=O)[C@H](C)NC(=O)[C@@H]1CSSC[C@H](NC(=O)[C@H](CCCCN)NC(=O)[C@@H](N)CCCCNC(=O)CC[C@H](NC(=O)CCCCCCCCCCCCCCCCC(=O)O)C(=O)O)C(=O)N[C@@H](CC(N)=O)C(=O)N[C@@H]([C@@H](C)O)C(=O)N[C@@H](C)C(=O)N[C@@H]([C@@H](C)O)C(=O)N1)[C@@H](C)O)C(=O)N[C@@H](CC(C)C)C(=O)N1CCC[C@H]1C(=O)N1CCC[C@H]1C(=O)N[C@H](C(=O)N[C@@H](CCC(=O)O)C(=O)N[C@H](C(=O)NCC(=O)N[C@@H](CO)C(=O)N[C@@H](CC(N)=O)C(=O)N[C@H](C(=O)N[C@@H](Cc1ccc(O)cc1)C(N)=O)[C@@H](C)O)C(C)C)[C@@H](C)O
B2: Peptide 44 (SEQ ID NO: 44) (peptide)
peptide: K([γGlu-C18 diacid])CNTATCATQRLANFLRHSS[Aib]NFGPILPPTEVGSNTY-NH2
modifications: disulfide 2-7; N-terminus assumed
SMILES: CC[C@H](C)[C@H](NC(=O)[C@@H]1CCCN1C(=O)CNC(=O)[C@H](Cc1ccccc1)NC(=O)[C@H](CC(N)=O)NC(=O)C(C)(C)NC(=O)[C@H](CO)NC(=O)[C@H](CO)NC(=O)[C@H](Cc1c[nH]cn1)NC(=O)[C@H](CCCNC(=N)N)NC(=O)[C@H](CC(C)C)NC(=O)[C@H](Cc1ccccc1)NC(=O)[C@H](CC(N)=O)NC(=O)[C@H](C)NC(=O)[C@H](CC(C)C)NC(=O)[C@H](CCCNC(=N)N)NC(=O)[C@H](CCC(N)=O)NC(=O)[C@@H](NC(=O)[C@H](C)NC(=O)[C@@H]1CSSC[C@H](NC(=O)[C@@H](N)CCCCNC(=O)CC[C@H](NC(=O)CCCCCCCCCCCCCCCCC(=O)O)C(=O)O)C(=O)N[C@@H](CC(N)=O)C(=O)N[C@@H]([C@@H](C)O)C(=O)N[C@@H](C)C(=O)N[C@@H]([C@@H](C)O)C(=O)N1)[C@@H](C)O)C(=O)N[C@@H](CC(C)C)C(=O)N1CCC[C@H]1C(=O)N1CCC[C@H]1C(=O)N[C@H](C(=O)N[C@@H](CCC(=O)O)C(=O)N[C@H](C(=O)NCC(=O)N[C@@H](CO)C(=O)N[C@@H](CC(N)=O)C(=O)N[C@H](C(=O)N[C@@H](Cc1ccc(O)cc1)C(N)=O)[C@@H](C)O)C(C)C)[C@@H](C)O
B3: Peptide 40 (SEQ ID NO: 40) (peptide)
peptide: K([γGlu-C18 diacid])KCNTATCATQRLANFLVHSS[Aib]NFGPILPPTHVGSNTY-NH2
modifications: disulfide 3-8; N-terminus assumed
SMILES: CC[C@H](C)[C@H](NC(=O)[C@@H]1CCCN1C(=O)CNC(=O)[C@H](Cc1ccccc1)NC(=O)[C@H](CC(N)=O)NC(=O)C(C)(C)NC(=O)[C@H](CO)NC(=O)[C@H](CO)NC(=O)[C@H](Cc1c[nH]cn1)NC(=O)[C@@H](NC(=O)[C@H](CC(C)C)NC(=O)[C@H](Cc1ccccc1)NC(=O)[C@H](CC(N)=O)NC(=O)[C@H](C)NC(=O)[C@H](CC(C)C)NC(=O)[C@H](CCCNC(=N)N)NC(=O)[C@H](CCC(N)=O)NC(=O)[C@@H](NC(=O)[C@H](C)NC(=O)[C@@H]1CSSC[C@H](NC(=O)[C@H](CCCCN)NC(=O)[C@@H](N)CCCCNC(=O)CC[C@H](NC(=O)CCCCCCCCCCCCCCCCC(=O)O)C(=O)O)C(=O)N[C@@H](CC(N)=O)C(=O)N[C@@H]([C@@H](C)O)C(=O)N[C@@H](C)C(=O)N[C@@H]([C@@H](C)O)C(=O)N1)[C@@H](C)O)C(C)C)C(=O)N[C@@H](CC(C)C)C(=O)N1CCC[C@H]1C(=O)N1CCC[C@H]1C(=O)N[C@H](C(=O)N[C@@H](Cc1c[nH]cn1)C(=O)N[C@H](C(=O)NCC(=O)N[C@@H](CO)C(=O)N[C@@H](CC(N)=O)C(=O)N[C@H](C(=O)N[C@@H](Cc1ccc(O)cc1)C(N)=O)[C@@H](C)O)C(C)C)[C@@H](C)O
B4: Peptide 41 (SEQ ID NO: 41) (peptide)
peptide: K([γGlu-C18 diacid])KCNTATCATQRLANFLVHSS[Aib]NFGPILPPTEVGSNTY-NH2
modifications: disulfide 3-8; N-terminus assumed
SMILES: CC[C@H](C)[C@H](NC(=O)[C@@H]1CCCN1C(=O)CNC(=O)[C@H](Cc1ccccc1)NC(=O)[C@H](CC(N)=O)NC(=O)C(C)(C)NC(=O)[C@H](CO)NC(=O)[C@H](CO)NC(=O)[C@H](Cc1c[nH]cn1)NC(=O)[C@@H](NC(=O)[C@H](CC(C)C)NC(=O)[C@H](Cc1ccccc1)NC(=O)[C@H](CC(N)=O)NC(=O)[C@H](C)NC(=O)[C@H](CC(C)C)NC(=O)[C@H](CCCNC(=N)N)NC(=O)[C@H](CCC(N)=O)NC(=O)[C@@H](NC(=O)[C@H](C)NC(=O)[C@@H]1CSSC[C@H](NC(=O)[C@H](CCCCN)NC(=O)[C@@H](N)CCCCNC(=O)CC[C@H](NC(=O)CCCCCCCCCCCCCCCCC(=O)O)C(=O)O)C(=O)N[C@@H](CC(N)=O)C(=O)N[C@@H]([C@@H](C)O)C(=O)N[C@@H](C)C(=O)N[C@@H]([C@@H](C)O)C(=O)N1)[C@@H](C)O)C(C)C)C(=O)N[C@@H](CC(C)C)C(=O)N1CCC[C@H]1C(=O)N1CCC[C@H]1C(=O)N[C@H](C(=O)N[C@@H](CCC(=O)O)C(=O)N[C@H](C(=O)NCC(=O)N[C@@H](CO)C(=O)N[C@@H](CC(N)=O)C(=O)N[C@H](C(=O)N[C@@H](Cc1ccc(O)cc1)C(N)=O)[C@@H](C)O)C(C)C)[C@@H](C)O
B5: Peptide 38 (SEQ ID NO: 38) (peptide)
peptide: K([γGlu-C18 diacid])KCNTATCATQRLAEFLVHSS[Aib]NFGPILPPTNVGSNTY-NH2
modifications: disulfide 3-8; N-terminus assumed
SMILES: CC[C@H](C)[C@H](NC(=O)[C@@H]1CCCN1C(=O)CNC(=O)[C@H](Cc1ccccc1)NC(=O)[C@H](CC(N)=O)NC(=O)C(C)(C)NC(=O)[C@H](CO)NC(=O)[C@H](CO)NC(=O)[C@H](Cc1c[nH]cn1)NC(=O)[C@@H](NC(=O)[C@H](CC(C)C)NC(=O)[C@H](Cc1ccccc1)NC(=O)[C@H](CCC(=O)O)NC(=O)[C@H](C)NC(=O)[C@H](CC(C)C)NC(=O)[C@H](CCCNC(=N)N)NC(=O)[C@H](CCC(N)=O)NC(=O)[C@@H](NC(=O)[C@H](C)NC(=O)[C@@H]1CSSC[C@H](NC(=O)[C@H](CCCCN)NC(=O)[C@@H](N)CCCCNC(=O)CC[C@H](NC(=O)CCCCCCCCCCCCCCCCC(=O)O)C(=O)O)C(=O)N[C@@H](CC(N)=O)C(=O)N[C@@H]([C@@H](C)O)C(=O)N[C@@H](C)C(=O)N[C@@H]([C@@H](C)O)C(=O)N1)[C@@H](C)O)C(C)C)C(=O)N[C@@H](CC(C)C)C(=O)N1CCC[C@H]1C(=O)N1CCC[C@H]1C(=O)N[C@H](C(=O)N[C@@H](CC(N)=O)C(=O)N[C@H](C(=O)NCC(=O)N[C@@H](CO)C(=O)N[C@@H](CC(N)=O)C(=O)N[C@H](C(=O)N[C@@H](Cc1ccc(O)cc1)C(N)=O)[C@@H](C)O)C(C)C)[C@@H](C)O

Target: T1, human amylin receptor (calcitonin …)
Assay: cell-based or functional assay

EC50 (cAMP production)	Ratio (EC50 hCTR / EC50 hAMYR3)	Binder
0.647 nM	29	B1
0.284 nM	22	B2
0.228 nM	15	B3
0.178 nM	7	B4
0.19 nM	6	B5

Target: T2, human calcitonin receptor
Assay: cell-based or functional assay

EC50 (cAMP production)	Binder
19 nM	B1
6.26 nM	B2
3.33 nM	B3
1.18 nM	B4
1.05 nM	B5

Target: T3, rat amylin receptor (calcitonin …)
Assay: cell-based or functional assay

EC50 (cAMP production)	Binder
0.0145 nM	B1
0.0185 nM	B2
0.012 nM	B3
0.0082 nM	B4
0.0051 nM	B5

Target: T4, rat calcitonin receptor
Assay: cell-based or functional assay

EC50 (cAMP production)	Binder
3.65 nM	B1
2.24 nM	B2
0.782 nM	B3
0.925 nM	B4
0.0203 nM	B5
